# Reference: patent US20210363259A1 (Biogen, published 2021)
# Key:
# integrin αvβ6 [1] = biological target: T1, integrin αvβ6 (human, UniProt P06756 31-1048; P18564 22-788); experiment: potency assay, binding relative to reference standard; stability sample, 24 months at 2-8° C.
# T1 construct: also called the antigen
# integrin αvβ6 [2] = biological target: T1, integrin αvβ6; experiment: potency assay, binding relative to reference standard; stability sample, 3 months at 2-8° C.
# integrin αvβ6 [3] = biological target: T1, integrin αvβ6; experiment: DELFIA blocking assay, binding relative to reference standard; stability sample, 0 months at 2-8° C.
# integrin αvβ6 [4] = biological target: T1, integrin αvβ6; experiment: potency assay, binding relative to reference standard; stability sample, 6 months at 2-8° C.
# integrin αvβ6 [5] = biological target: T1, integrin αvβ6; experiment: potency assay, binding relative to reference standard; stability sample, 12 months at 2-8° C.
# integrin αvβ6 [6] = biological target: T1, integrin αvβ6; experiment: DELFIA blocking assay, binding relative to reference standard; stability sample, 18 months at 2-8° C.
# integrin αvβ6 [7] = biological target: T1, integrin αvβ6; experiment: DELFIA blocking assay, binding relative to reference standard; stability sample, 1 month at 2-8° C.
# integrin αvβ6 [8] = biological target: T1, integrin αvβ6; experiment: potency assay, binding relative to reference standard; stability sample, 9 months at 2-8° C.
# T1 sequence (P06756 31-1048, chain 1 of 2): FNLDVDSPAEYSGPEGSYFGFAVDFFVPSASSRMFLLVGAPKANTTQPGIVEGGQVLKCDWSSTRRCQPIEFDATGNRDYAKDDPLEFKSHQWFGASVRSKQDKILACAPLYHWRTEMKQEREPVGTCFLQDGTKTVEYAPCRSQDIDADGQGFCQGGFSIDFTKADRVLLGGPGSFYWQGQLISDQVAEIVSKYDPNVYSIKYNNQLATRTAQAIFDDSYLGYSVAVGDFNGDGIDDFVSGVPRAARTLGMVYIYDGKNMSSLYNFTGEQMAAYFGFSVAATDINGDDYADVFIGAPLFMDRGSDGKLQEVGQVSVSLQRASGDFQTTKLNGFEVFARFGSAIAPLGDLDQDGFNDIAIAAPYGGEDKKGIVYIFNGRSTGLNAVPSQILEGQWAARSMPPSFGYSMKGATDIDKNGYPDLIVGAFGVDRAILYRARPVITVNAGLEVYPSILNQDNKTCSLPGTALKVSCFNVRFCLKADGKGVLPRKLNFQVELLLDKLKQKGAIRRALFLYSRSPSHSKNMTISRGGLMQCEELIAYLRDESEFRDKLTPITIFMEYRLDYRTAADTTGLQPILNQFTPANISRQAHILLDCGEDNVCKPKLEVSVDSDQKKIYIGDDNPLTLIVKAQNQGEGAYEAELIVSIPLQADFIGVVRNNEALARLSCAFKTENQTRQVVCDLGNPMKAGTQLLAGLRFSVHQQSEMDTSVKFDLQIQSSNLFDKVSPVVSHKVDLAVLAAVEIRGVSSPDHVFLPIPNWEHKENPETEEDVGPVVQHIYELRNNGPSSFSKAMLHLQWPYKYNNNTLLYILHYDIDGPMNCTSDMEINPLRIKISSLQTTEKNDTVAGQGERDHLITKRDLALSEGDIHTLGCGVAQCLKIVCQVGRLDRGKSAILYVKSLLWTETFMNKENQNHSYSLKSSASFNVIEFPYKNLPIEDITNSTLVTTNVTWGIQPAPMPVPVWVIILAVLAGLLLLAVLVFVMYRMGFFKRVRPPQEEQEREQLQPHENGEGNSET
# T1 sequence (P18564 22-788, chain 2 of 2): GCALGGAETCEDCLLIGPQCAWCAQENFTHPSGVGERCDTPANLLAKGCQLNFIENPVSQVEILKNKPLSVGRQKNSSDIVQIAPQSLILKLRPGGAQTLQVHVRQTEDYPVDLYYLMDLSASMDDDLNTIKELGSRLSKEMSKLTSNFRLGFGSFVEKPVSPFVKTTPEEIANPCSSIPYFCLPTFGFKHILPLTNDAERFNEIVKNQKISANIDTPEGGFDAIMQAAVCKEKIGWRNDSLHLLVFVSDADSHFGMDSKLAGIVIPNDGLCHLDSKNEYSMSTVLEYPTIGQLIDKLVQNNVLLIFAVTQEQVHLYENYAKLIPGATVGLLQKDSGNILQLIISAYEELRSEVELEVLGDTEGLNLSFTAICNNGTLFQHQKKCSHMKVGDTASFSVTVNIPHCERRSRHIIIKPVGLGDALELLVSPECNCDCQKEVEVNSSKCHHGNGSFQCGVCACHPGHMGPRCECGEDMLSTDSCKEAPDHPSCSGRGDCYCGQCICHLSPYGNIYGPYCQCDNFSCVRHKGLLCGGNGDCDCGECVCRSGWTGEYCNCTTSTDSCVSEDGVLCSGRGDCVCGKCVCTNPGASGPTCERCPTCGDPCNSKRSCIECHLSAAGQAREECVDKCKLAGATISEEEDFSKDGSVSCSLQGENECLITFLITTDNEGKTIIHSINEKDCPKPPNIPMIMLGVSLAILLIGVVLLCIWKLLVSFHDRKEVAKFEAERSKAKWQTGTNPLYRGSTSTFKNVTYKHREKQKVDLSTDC
binder,measurement,setting,value
"STX-100 (antibody, human IgG1, kappa, V domains shown, Humanized human IgG1/human kappa monoclonal antibody; It was tested as drug product in citrate/arginine/methionine/PS80 formulations; also called BG00011; BG11) VH: EVQLVESGGGLVQPGGSLRLSCAASGFTFSRYVMSWVRQAPGKGLEWVASISSGGRMYYPDTVKGRFTISRDNAKNSLYLQMNSLRAEDTAVYYCARGSIYDGYYVFPYWGQGTLVTVSS VL: EIVLTQSPATLSLSPGERATLSCSASSSVSSSYLYWYQQKPGQAPRLLIYSTSNLASGIPARFSGSGSGTDFTLTISSLEPEDFAVYYCHQWSTYPPTFGGGTKVEIKR","Potency, % Binding relative to Reference Standard",integrin αvβ6 [1],106%
same,"Potency, % Binding relative to Reference Standard",integrin αvβ6 [2],102%
same,DELFIA Blocking - Binding relative to Reference Standard,integrin αvβ6 [3],101%
same,"Potency, % Binding relative to Reference Standard",integrin αvβ6 [4],98%
same,"Potency, % Binding relative to Reference Standard",integrin αvβ6 [5],100%
same,DELFIA Blocking - Binding relative to Reference Standard,integrin αvβ6 [6],96%
same,DELFIA Blocking - Binding relative to Reference Standard,integrin αvβ6 [7],100%
same,"Potency, % Binding relative to Reference Standard",integrin αvβ6 [8],95%
